US20050106145A1 (SIGMA TAU INDUSTRIE FARMACEUTICHE RIUNITE S P A, published 2005)

Assays:
[1] = molecular target: T1, human tenascin-C (human, UniProt P24821 23-2201, limits assumed); test: BIAcore
T1 construct: Extracellular matrix protein; also called SK-MEL-28 purified tenascin

[2] = molecular target: T1, human tenascin-C; test: BIAcore; remark: listed apart in the source
[3] = molecular target: T1, human tenascin-C; test: BIAcore, comparison with BC4
[4] = molecular target: T1, human tenascin-C; test: ELISA, optimal antigen concentration (FIG. 6 panel A)
[5] = molecular target: T2, A1-4D fragment (human, UniProt P24821); test: Western blot
T2 construct: recombinant antigenic fragment; Lane B of the Western blots; also called A-D fragment
T2 sequence (antigen fragment, looked up): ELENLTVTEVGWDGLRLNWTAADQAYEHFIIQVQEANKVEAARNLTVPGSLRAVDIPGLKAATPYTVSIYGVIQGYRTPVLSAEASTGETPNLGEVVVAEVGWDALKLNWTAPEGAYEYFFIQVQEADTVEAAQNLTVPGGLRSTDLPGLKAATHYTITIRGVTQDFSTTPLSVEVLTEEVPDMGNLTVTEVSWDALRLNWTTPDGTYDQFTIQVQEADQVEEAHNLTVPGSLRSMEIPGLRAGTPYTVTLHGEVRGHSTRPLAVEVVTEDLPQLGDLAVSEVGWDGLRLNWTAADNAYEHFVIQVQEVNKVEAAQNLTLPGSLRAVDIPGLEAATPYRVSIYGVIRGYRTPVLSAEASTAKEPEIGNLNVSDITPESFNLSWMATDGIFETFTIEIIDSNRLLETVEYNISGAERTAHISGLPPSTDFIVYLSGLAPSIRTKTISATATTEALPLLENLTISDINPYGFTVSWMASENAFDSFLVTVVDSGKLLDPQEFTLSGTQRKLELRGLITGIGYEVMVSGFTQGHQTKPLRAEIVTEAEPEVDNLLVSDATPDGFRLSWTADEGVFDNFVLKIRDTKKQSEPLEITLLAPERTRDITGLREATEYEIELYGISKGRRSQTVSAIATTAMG

T1 sequence (P24821 23-2201 limits assumed): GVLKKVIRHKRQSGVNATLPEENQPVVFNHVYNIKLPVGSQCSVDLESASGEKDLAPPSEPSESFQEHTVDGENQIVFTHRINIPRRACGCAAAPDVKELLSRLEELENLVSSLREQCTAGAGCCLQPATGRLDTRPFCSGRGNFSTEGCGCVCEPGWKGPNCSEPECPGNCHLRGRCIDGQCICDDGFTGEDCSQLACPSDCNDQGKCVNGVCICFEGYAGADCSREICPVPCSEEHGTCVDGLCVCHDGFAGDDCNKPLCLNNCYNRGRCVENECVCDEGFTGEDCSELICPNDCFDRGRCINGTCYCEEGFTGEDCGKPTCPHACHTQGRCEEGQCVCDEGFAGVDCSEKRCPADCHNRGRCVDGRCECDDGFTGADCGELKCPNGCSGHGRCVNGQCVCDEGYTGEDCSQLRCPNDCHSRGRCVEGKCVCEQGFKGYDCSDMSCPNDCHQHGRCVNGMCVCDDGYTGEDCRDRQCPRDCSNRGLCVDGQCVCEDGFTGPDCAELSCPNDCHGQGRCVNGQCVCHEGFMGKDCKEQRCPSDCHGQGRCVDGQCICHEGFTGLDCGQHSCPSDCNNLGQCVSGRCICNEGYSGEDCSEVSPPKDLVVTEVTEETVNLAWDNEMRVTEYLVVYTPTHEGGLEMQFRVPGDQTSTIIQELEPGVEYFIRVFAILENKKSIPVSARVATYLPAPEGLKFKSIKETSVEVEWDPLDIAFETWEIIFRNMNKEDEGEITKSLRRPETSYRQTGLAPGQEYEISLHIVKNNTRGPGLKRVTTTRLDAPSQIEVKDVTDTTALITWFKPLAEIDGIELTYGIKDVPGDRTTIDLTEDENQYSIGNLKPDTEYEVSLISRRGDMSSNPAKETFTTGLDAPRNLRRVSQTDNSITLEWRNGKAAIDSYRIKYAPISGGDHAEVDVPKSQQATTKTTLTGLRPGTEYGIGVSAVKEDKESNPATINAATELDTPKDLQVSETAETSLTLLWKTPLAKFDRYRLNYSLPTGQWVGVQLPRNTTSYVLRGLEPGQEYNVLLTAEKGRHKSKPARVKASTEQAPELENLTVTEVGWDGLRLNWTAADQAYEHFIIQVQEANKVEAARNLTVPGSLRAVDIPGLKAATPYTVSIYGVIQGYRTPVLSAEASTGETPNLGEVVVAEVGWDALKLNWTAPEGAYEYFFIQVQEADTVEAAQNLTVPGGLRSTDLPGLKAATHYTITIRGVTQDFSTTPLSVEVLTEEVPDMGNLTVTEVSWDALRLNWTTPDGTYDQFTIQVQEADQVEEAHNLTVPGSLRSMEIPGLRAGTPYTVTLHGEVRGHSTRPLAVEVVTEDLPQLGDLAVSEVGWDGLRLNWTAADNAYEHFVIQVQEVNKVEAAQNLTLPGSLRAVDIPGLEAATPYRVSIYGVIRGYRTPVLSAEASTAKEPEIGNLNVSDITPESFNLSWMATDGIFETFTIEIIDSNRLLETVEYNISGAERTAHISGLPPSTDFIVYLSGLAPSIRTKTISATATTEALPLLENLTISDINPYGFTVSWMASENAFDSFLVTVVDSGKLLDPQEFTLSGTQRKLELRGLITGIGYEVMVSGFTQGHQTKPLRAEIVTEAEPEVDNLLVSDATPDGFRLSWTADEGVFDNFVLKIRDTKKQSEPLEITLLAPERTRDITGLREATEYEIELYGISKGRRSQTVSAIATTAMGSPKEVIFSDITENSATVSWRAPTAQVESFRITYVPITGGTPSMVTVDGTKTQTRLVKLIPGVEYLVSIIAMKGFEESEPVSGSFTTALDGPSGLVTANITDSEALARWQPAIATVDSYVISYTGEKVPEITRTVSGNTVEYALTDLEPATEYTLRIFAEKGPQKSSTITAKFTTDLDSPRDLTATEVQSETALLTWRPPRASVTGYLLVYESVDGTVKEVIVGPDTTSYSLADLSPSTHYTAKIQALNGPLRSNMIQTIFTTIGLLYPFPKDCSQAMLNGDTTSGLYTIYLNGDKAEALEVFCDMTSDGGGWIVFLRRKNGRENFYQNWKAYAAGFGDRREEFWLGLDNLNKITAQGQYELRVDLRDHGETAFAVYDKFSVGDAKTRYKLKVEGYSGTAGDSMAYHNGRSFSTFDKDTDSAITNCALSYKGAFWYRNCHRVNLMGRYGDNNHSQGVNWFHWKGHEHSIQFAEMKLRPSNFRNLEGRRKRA

B1: ST2146 anti-human tenascin monoclonal antibody (antibody, V domains shown)
VH: KVKLQQSGPELVKPGASVKVSCKASGYAFTSYNMYWVKQSHGKSLEWIGYIDPYNGVTSYNQKFKGKATLTVDKSSSTAYMHLNSLTSEDSAVYYCARGGGSIYYAMDYWGQGTTVTVSS
VL: DIVMTQAAPSVPVTPGESVSISCRSSKSLLHSNGNTYLYWFLQRPGQSPQLLIYRMSNLASGVPDRFSGSGSGTAFTLRISRVEAEDVGVYYCMQHLEYPLTFGAGTKLELKR
notes: Mouse immunoglobulin of IgG2b/k isotype from hybridoma cST2146; Heavy chain is heterogeneously O-glycosylated
For B1, the Kd [1] was 1.4 nM, the koff [2] was 0.00041 s⁻¹ and the kon [2] was 300000 M⁻¹ s⁻¹. The “fold affinity against BC4” value [3] was ~3 fold, the “fold less antibody to obtain 1.0 OD than BC4” value [4] was ~100 fold and the “fold less antibody to obtain 1.0 OD than the fully reactive peak 3 of BC4” value [4] was ~20 fold. B1: no binding [5].
